Reference: patent US20120322150

What was measured:
MBP-BZR1, Q8S307 = target: T1, MBP-BZR1, Q8S307
T1 chain: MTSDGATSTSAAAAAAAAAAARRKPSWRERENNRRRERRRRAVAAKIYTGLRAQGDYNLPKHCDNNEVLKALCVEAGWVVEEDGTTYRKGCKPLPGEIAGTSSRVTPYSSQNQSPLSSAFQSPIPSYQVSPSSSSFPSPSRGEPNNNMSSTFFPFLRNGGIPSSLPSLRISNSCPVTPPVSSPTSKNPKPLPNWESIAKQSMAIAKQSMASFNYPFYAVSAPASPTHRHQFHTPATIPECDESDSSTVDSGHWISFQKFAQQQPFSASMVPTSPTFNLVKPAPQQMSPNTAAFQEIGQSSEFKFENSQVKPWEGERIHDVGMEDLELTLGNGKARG

[1] = target: T2, GST-BSU1-KL (N-terminal Kelch domain)
T2 chain: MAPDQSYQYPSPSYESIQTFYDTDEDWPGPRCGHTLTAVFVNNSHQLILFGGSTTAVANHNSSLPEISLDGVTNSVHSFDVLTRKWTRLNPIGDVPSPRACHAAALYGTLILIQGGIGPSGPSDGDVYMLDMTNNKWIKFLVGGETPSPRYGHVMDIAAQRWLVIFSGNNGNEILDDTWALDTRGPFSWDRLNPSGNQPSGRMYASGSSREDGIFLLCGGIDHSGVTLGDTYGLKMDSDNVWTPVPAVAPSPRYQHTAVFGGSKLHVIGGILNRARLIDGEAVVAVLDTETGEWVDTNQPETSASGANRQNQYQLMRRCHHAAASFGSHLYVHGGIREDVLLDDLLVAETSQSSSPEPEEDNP

GST-BIN2, Q39011 = target: T3, GST-BIN2, Q39011
T3 chain: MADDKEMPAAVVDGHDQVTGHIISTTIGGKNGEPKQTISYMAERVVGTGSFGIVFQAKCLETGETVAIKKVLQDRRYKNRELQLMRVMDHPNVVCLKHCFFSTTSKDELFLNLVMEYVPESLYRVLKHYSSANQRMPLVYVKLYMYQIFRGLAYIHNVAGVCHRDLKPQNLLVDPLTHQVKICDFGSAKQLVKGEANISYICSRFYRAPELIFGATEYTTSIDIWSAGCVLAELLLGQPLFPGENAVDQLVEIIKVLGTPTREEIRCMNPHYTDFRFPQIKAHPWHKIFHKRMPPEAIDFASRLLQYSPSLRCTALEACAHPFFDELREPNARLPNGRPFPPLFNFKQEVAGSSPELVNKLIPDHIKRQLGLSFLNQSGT

B1: GST-AtSK12 (protein)
chain: MASVGIEPSAAVRESTGNVTDADRLPEEMKDMKIQDDKEMEATIVNGNVTETGHIIVTTIGGRNGQPKQTISYMAERVVGHGSFGVVFQAKCLETGETVAIKKVLQDRRYKNRELQTMRLLDHPNVVSLKHCFFSTTEKDELYLNLVLEYVPETVHRVIKHYNKLNQRMPLVYVKLYTYQIFRSLSYIHRCIGVCHRDIKPQNLLVNPHTHQVKLCDFGSAKVLVKGEPNISYICSRYYRAPELIFGATEYTTAIDVWSAGCVLAELLLGQPLFPGESGVDQLVEIIKVLGTPTREEIKCMNPNYTEFKFPQIKAHPWHKIFHKRMPPEAVDLVSRLLQYSPNLRCAALDSLVHPFFDELRDPNARLPNGRFLPPLFNFKPHELKGVPVEMVAKLVPEHARKQCPWLSL
B1 was tested, and the “phosphorylation of MBP-BZR1 (in vitro kinase assay with 32P-γATP)” value (MBP-BZR1, Q8S307) was “AtSK12 strongly phosphorylates BZR1 in vitro”.

B2: GST-BIN2 (protein)
chain: T3 chain
For B2, the “BIN2 phosphorylation of MBP-BZR1 (in vitro kinase assay with 32P-γATP)” value [1] was “the Kelch repeat domain showed no effect”.

B3: GST-BSU1-P (C-terminal phosphatase domain) (protein)
chain: DNYMLLDDYLMDEPKPLSSEPEASSFIMRSTSEIAMDRLAEAHNLPTIENAFYDSAIEGYVPLQHGAETVGNRGGLVRTASLDQSTQDLHKKVISTLLRPKTWTPPANRDFFLSYLEVKHLCDEVEKIFMNEPTLLQLKVPIKVFGDIHGQYGDLMRLFHEYGHPSVEGDITHIDYLFLGDYVDRGQHSLEIIMLLFALKIEYPKNIHLIRGNHESLAMNRIYGFLTECEERMGESYGFEAWLKINQVFDYLPLAALLEKKVLCVHGGIGRAVTIEEIENIERPAFPDTGSMVLKDILWSDPTMNDTVLGIVDNARGEGVVSFGPDIVKAFLERNGLEMILRAHECVIDGFERFADGRLITVFSATNYCGTAQNAGAILVIGRDMVIYPKLIHPHPPPISSSEEDYTDKAWMQELNIEMPPTPARGESSE
In the case of B3, the “BIN2 phosphorylation of MBP-BZR1 (in vitro kinase assay with 32P-γATP)” value (GST-BIN2, Q39011) is reported as “The phosphatase domain of BSU1 reduced BIN2 phosphorylation of BZR1”.
